Experimental findings from paper PMC3765947 (Current Biology, 2012) are described below.

This assay addresses purified FMNL2 N terminus (FMNL2N, aa 2-379) (human (from the printed UniProt …, UniProt Q96PY5-3 2-379)). In words: ITC.

Sequence of purified FMNL2 N terminus (FMNL2N, aa 2-379) (human (Q96PY5 2-379): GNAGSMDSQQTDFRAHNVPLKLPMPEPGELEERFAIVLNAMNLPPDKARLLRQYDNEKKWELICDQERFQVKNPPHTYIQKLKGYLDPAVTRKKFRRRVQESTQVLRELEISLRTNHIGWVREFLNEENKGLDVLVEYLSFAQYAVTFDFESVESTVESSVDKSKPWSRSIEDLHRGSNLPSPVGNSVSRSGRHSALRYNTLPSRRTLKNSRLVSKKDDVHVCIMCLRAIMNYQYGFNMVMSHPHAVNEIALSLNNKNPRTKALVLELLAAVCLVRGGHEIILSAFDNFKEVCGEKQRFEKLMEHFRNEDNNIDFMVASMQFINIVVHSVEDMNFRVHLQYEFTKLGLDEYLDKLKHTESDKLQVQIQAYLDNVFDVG

B1: Cdc42 (nucleotide-loaded, for ITC) (natural protein)
chain: not shown
With B1, the Kd (as a rule, the free concentration of one partner at which half of the binding sites on the other are occupied at equilibrium, for simple one-to-one binding) stood at 3.13 ± 0.38 µM and the dH is -5.33 ± 0.16 kcal/mol.
